Laboratory results from patent publication US20250059282A1 (University of Texas, published 2025).
Changes are numbered by the printed parent chain. Read-outs that look alike come from different tables or passages of the source.

T1: Human PD-L2-HIS (human, UniProt Q9BQ51 20-220)
T1 construct: also called His-tagged human PD-L2; not shown: His tag
T1 sequence: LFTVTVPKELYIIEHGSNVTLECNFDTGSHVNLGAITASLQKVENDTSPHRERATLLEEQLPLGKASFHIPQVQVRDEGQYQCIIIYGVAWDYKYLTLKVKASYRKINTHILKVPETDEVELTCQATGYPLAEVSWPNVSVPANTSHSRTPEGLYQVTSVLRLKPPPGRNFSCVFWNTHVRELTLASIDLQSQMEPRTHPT

T2: Mouse PD-L2-Fc (mouse, UniProt Q9WUL5 20-219, limits assumed)
T2 construct: also called murine PD-L2; not shown: Fc
T2 sequence (looked up): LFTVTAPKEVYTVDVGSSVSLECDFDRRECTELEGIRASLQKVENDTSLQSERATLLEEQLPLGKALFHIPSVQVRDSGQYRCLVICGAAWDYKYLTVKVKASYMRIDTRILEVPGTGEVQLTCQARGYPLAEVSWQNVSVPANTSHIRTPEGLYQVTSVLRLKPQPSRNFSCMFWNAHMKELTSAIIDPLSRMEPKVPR

T3: Cyno PD-L2-Fc (cynomolgus, UniProt A0A2K5U5Z4 20-220)
T3 construct: also called cynomolgus PD-L2; not shown: Fc
T3 sequence: T1 sequence with V19A, P62S, S67L, V139I, P166H, T178A, H179Q, M194I

T4: human PD-L2 on CHO cells (human, UniProt Q9BQ51 20-273)
T4 sequence: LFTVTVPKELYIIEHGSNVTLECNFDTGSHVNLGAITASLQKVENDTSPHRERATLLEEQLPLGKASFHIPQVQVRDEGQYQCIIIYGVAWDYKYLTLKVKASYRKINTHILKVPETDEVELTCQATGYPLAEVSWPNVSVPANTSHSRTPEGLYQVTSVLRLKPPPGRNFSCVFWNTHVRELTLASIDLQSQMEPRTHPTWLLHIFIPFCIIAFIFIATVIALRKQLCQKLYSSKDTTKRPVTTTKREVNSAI

T5: Human PD-L2-Fc (human, UniProt Q9BQ51 20-220)
T5 construct: also called dimeric PD-L2; PD-L2 (dimeric ligand); not shown: human IgG1 Fc constant region
T5 sequence: T1 sequence

T6: Human b-PD-L2-His (human, UniProt Q9BQ51 20-220, biotinylated (b-); sites not stated)
T6 construct: Antigen of the MSD-SET measurements; also called biotinylated human PD-L2-His; not shown: His tag
T6 sequence: T1 sequence

B1: BiPDL3-14 (antibody, V domains shown)
VH: QVQLQQWGAGLLKPSETLSLTCAVYGGSLSGYPWSWIRQPPGKGLEWIGETDVSGWTDYNPSLKSRVTISVDTSKNQFSLKLSSVTAADTAVYYCARDGRRMGTPSFDIWGQGTMVTVSS
VL: DIQMTQSPSSVSASVGDRVTITCRASQGINSFLAWYQQKPGKAPKLLIYAASSLNSGVPSRFSGSGSGTDFTLTISSLQPEDFATYYCQKAVYFPPTFGGGTKVEIK
notes: IgG; also called ADI-37464; 37464
B2: BiPDL3-13 (antibody, V domains shown)
VH: B1 VH
VL: B1 VL with M4L, N30S, F32W, N55Q, K90Q, A91Y
notes: Third generation, IgG
B3: BiPDL4-14 (antibody, V domains shown)
VH: QVQLVESGGGVVQPGRSLRLSCAASGFTFDEYGMHWVRQAPGKGLEWVAVIGYDGLNKYYADSVKGRFTISRDNSKNTLYLQMNSLRAEDTAVYYCARAGIEYSYAYTDYWGQGTLVTVSS
VL: EIVLTQSPGTLSLSPGERATLSCRASQFVYSSDLAWYQQKPGQAPRLLIYGASTRKTGIPDRFSGSGSGTDFTLTISRLEPEDFAVYYCLQFGWWPPRTFGGGTKVEIK
notes: Fourth generation, IgG
B4: BiPDL4-34 Fab (Fab, V domains shown)
VH: B3 VH with V12I, D30S, E31A, G33L, V50A, L56M
VL: B3 VL with T54A, K56A, T57A, L90M
notes: Fab made by papain digestion of the IgG
B5: BiPDL4-14 Fab (Fab, V domains shown)
VH: B3 VH
VL: B3 VL
notes: as for B4
B6: BiPDL4-44 (antibody, V domains shown)
VH: B3 VH with V12I, D30S, E31A, G33L, V50A, L56M
VL: B3 VL with Q27H, F28S, Y30V, D33Y, T54S, K56E, T57D, L90V
notes: Fourth generation, IgG

Assays:
Human PD-L2-HIS [1] = target: T1, Human PD-L2-HIS; assay: ForteBio, IgG, monovalent
Human PD-L1-HIS [2] = target: T7, Human PD-L1-HIS (human, UniProt Q9NZQ7 19-238); assay: ForteBio, IgG, monovalent
T7 construct: also called HIS-tagged monovalent PD-L1; His-tagged human PD-L1; not shown: His tag

Mouse PD-L1-Fc [3] = target: T8, Mouse PD-L1-Fc (mouse, UniProt Q9EP73 19-239, limits assumed); assay: ForteBio, IgG, avid
T8 construct: also called murine PD-L1; not shown: Fc

Mouse PD-L2-Fc [4] = target: T2, Mouse PD-L2-Fc; assay: ForteBio, IgG, avid
Cyno PD-L1-Fc [5] = target: T9, Cyno PD-L1-Fc (cynomolgus, UniProt G7PSE7 19-238); assay: ForteBio, IgG, avid
T9 construct: also called cynomolgus PD-L1

Cyno PD-L2-Fc [6] = target: T3, Cyno PD-L2-Fc; assay: ForteBio, IgG, avid
human PD-L1 on CHO cells [7] = target: T10, human PD-L1 on CHO cells (human, UniProt Q9NZQ7 19-290); assay: cell-based or functional assay
human PD-L2 on CHO cells [8] = target: T4, human PD-L2 on CHO cells; assay: cell-based or functional assay
Mouse PD-L1-Fc [9] = target: T8, Mouse PD-L1-Fc; assay: ForteBio Octet, IgG, avid
Human PD-L2-Fc [10] = target: T5, Human PD-L2-Fc; assay: ForteBio Octet, IgG, avid
Human PD-L1-Fc [11] = target: T11, Human PD-L1-Fc (human, UniProt Q9NZQ7 19-238); assay: ForteBio Octet, IgG, avid
T11 construct: also called dimeric PD-L1; PD-L1 (dimeric ligand); not shown: human IgG1 Fc constant region

Mouse PD-L2-Fc [12] = target: T2, Mouse PD-L2-Fc; assay: ForteBio Octet, IgG, avid
Cyno PD-L1-Fc [13] = target: T9, Cyno PD-L1-Fc; assay: ForteBio Octet, IgG, avid
Cyno PD-L2-Fc [14] = target: T3, Cyno PD-L2-Fc; assay: ForteBio Octet, IgG, avid
Human PD-L1-HIS [15] = target: T7, Human PD-L1-HIS; assay: ForteBio Octet, IgG; column head says Avid; IgG against Human PD-L1-HIS (head says Avid), not Fab against PD-L1-Fc
human PD-L1 on CHO cells [16] = target: T10, human PD-L1 on CHO cells; assay: cell-based or functional assay; remark: listed apart in the source
human PD-L2 on CHO cells [17] = target: T4, human PD-L2 on CHO cells; assay: cell-based or functional assay; remark: listed apart in the source
Mouse PD-L1-Fc [18] = target: T8, Mouse PD-L1-Fc; assay: ForteBio, IgG, avid; remark: listed apart in the source
Mouse PD-L2-Fc [19] = target: T2, Mouse PD-L2-Fc; assay: ForteBio, IgG, avid; remark: listed apart in the source
Cyno PD-L1-Fc [20] = target: T9, Cyno PD-L1-Fc; assay: ForteBio, IgG, avid; remark: listed apart in the source
Cyno PD-L2-Fc [21] = target: T3, Cyno PD-L2-Fc; assay: ForteBio, IgG, avid; remark: listed apart in the source
Human PD-L2-HIS [22] = target: T1, Human PD-L2-HIS; assay: ForteBio Octet, IgG, monovalent
Human PD-L2-HIS [23] = target: T1, Human PD-L2-HIS; assay: ForteBio, IgG, monovalent; remark: listed apart in the source
Human PD-L1-HIS [24] = target: T7, Human PD-L1-HIS; assay: ForteBio, IgG, monovalent; remark: listed apart in the source
Human PD-L2-Fc [25] = target: T5, Human PD-L2-Fc; assay: ForteBio, Fab, monovalent
Protocol: (§1) ForteBio KD measurements—ForteBio affinity measurements were performed on an Octet® RED384 generally as previously described (see, e.g., Estep et al., 2013). Briefly, ForteBio affinity measurements were performed by loading IgGs on-line onto AHQ sensors. Sensors were equilibrated off-line in assay buffer for 30 min and then monitored on-line for 60 seconds for baseline establishment. Sensors with loaded IgGs were exposed to 100 nM antigen for 3 minutes, and afterwards were transferred to assay buffer for 3 min for off-rate measurement. For monovalent affinity assessment Fabs were used instead of IgGs. For this assessment the […] Fc fusion antigen was loaded on-line onto the AHQ sensors. Sensors were equilibrated off-line in assay buffer for 30 min and then monitored on-line for 60 seconds for baseline establishment. Sensors with loaded antigen were exposed to 100 nM Fab for 3 minutes, and afterwards they were transferred to assay buffer for 3 min for off-rate measurement. All kinetics were analyzed using the 1:1 binding model.

Human PD-L1-Fc [26] = target: T11, Human PD-L1-Fc; assay: ForteBio, Fab, monovalent
Protocol: as §1

Human b-PD-L1-His [27] = target: T12, Human b-PD-L1-His (human, UniProt Q9NZQ7 19-238, biotinylated (b-); sites not stated); assay: MSD-SET, Fab, monovalent
T12 construct: Antigen of the MSD-SET measurements; also called biotinylated human PD-L1-His; not shown: His tag
Protocol: (§2) Briefly, solution equilibrium titrations (SET) were performed in PBS +0.1% IgG-Free BSA (PBSF) with antigen held constant at 50 pM and incubated with 3- to 5-fold serial dilutions of Fab starting at 20 nM. Antibodies (20 nM in PBS) were coated onto standard bind MSD®-ECL plates overnight at 4° C. or at room temperature for 30 min. Plates were then blocked by BSA for 30 min with shaking at 700 rpm, followed by three washes with wash buffer (PBSF+0.05% Tween 20). SET samples were applied and incubated on the plates for 150 s with shaking at 700 rpm followed by one wash. Antigen captured on a plate was detected with 250 ng/mL sulfotag-labeled streptavidin in PBSF by incubation on the plate for 3 min. The plates were washed three times with wash buffer and then read on the MSD® Sector Imager 2400 instrument using 1× Read Buffer T with surfactant. The percent free antigen was plotted as a function of titrated antibody in Prism and fit to a quadratic equation to extract the KD. To improve throughput, liquid handling robots were used throughout MSD®-SET experiments, including SET sample preparation.

Human b-PD-L2-His [28] = target: T6, Human b-PD-L2-His; assay: MSD-SET, Fab, monovalent
Protocol: as §2

Human b-PD-L1-His [29] = target: T12, Human b-PD-L1-His; assay: MSD-SET, Fab, monovalent; remark: listed apart in the source
Protocol: as §2

Human b-PD-L2-His [30] = target: T6, Human b-PD-L2-His; assay: MSD-SET, Fab, monovalent; remark: listed apart in the source
Protocol: as §2

Human PD-L2-Fc [31] = target: T5, Human PD-L2-Fc; assay: ForteBio Octet, Fab, monovalent
Protocol: as §1

Human PD-L1-Fc [32] = target: T11, Human PD-L1-Fc; assay: ForteBio Octet, Fab, monovalent
Protocol: as §1

T10 sequence (Q9NZQ7 19-290 limits assumed): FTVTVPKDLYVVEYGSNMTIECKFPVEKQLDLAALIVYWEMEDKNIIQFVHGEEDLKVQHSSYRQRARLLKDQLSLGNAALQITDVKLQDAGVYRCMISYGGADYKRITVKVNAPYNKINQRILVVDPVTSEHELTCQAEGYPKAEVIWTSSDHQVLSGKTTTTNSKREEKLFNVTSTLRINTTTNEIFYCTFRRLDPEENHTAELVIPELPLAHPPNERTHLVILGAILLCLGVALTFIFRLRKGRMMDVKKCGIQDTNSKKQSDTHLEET
T7 sequence (Q9NZQ7 19-238 limits assumed): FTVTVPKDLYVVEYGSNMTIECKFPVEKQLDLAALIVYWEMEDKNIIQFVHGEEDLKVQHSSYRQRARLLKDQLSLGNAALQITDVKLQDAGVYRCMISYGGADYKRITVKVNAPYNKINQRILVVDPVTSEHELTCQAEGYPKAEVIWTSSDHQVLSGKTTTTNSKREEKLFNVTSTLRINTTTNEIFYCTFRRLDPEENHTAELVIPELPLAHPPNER
T12 sequence (Q9NZQ7 19-238 limits assumed): as above
T11 sequence (Q9NZQ7 19-238 limits assumed): as above
T8 sequence (Q9EP73 19-239 limits assumed): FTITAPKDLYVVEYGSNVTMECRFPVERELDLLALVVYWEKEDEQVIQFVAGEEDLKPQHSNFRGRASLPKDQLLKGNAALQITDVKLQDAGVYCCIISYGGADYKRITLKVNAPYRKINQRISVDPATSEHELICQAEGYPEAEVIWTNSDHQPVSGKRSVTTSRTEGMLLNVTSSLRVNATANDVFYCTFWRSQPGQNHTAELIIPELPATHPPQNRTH
T9 sequence (G7PSE7 entry or part of it limits assumed): as the sequence (Q9NZQ7 19-238 limits assumed) above, with A33T, A34S, S62N, R68Q, Q82R, F173L, T185A, T192I, H215L counted along it

Kd (Mouse PD-L2-Fc [12]) [nM]	Kd (Cyno PD-L1-Fc [13]) [nM]	Kd (Cyno PD-L2-Fc [14]) [nM]	EC50 (read off the curve); Fold induction of luciferase, Promega: CHO-PD-L1/PD-L2 dual cells with PD-1 Jurkat reporter cells (PD-L1 and PD-L2 not separable) (human PD-L1 on CHO cells [16]) [nM]	EC50 (read off the curve); Fold induction of luciferase, Promega: CHO-PD-L1/PD-L2 dual cells with PD-1 Jurkat reporter cells (PD-L1 and PD-L2 not separable) (human PD-L2 on CHO cells [17]) [nM]	Kd (Mouse PD-L1-Fc [18]) [nM]	Kd (Mouse PD-L2-Fc [19]) [nM]	Kd (Cyno PD-L1-Fc [20]) [nM]	Kd (Cyno PD-L2-Fc [21]) [nM]	Kd (Human PD-L2-HIS [23]) [nM]	Kd (Human PD-L1-HIS [24]) [nM]	Kd (Human PD-L2-Fc [25]) [nM]	Kd (Human PD-L1-Fc [26]) [nM]	Kd (Human b-PD-L1-His [27]) [nM]	Kd (Human b-PD-L2-His [28]) [nM]	Kd (Human b-PD-L1-His [29]) [nM]	Kd (Human b-PD-L2-His [30]) [nM]	Kd (Human PD-L2-Fc [31]) [nM]	Kd (Human PD-L1-Fc [32]) [nM]	also measured	Binder
–	–	–	–	–	–	–	–	–	–	–	–	–	–	–	–	–	–	–	Kd (Human PD-L2-HIS [1]): 0.684 nM; Kd (Human PD-L1-HIS [2]): 3.93 nM; Kd (Mouse PD-L1-Fc [3]): 2.34 nM; Kd (Mouse PD-L2-Fc [4]): 0.533 nM; Kd (Cyno PD-L1-Fc [5]): 0.371 nM; Kd (Cyno PD-L2-Fc [6]): 0.543 nM; EC50 (read off the curve); Luc Activity, Promega CHO-PDL1/PD-L2 dual cells with NFAT-Luc Jurkat T cells (PD-L1 and PD-L2 not separable) (human PD-L1 on CHO cells [7]): ~2 nM; EC50 (read off the curve); Luc Activity, Promega CHO-PDL1/PD-L2 dual cells with NFAT-Luc Jurkat T cells (PD-L1 and PD-L2 not separable) (human PD-L2 on CHO cells [8]): ~2 nM	B1
1.22	2.34	0.688	–	–	–	–	–	–	–	–	–	–	–	–	–	–	–	–	binding result (Mouse PD-L1-Fc [9]): no binding (tested: 100 nM antigen); Kd (Human PD-L2-Fc [10]): 0.431 nM; Kd (Human PD-L1-Fc [11]): 3.28 nM	B2
7.88	0.508	0.64	~0.3	~0.3	0.4	7.88	0.508	0.64	0.738	2.26	–	–	–	–	–	–	–	–	Kd (Human PD-L1-HIS [15]): 0.692 nM; Kd (Mouse PD-L1-Fc [9]): 0.4 nM; Kd (Human PD-L2-HIS [22]): 0.738 nM	B3
–	–	–	–	–	–	–	–	–	–	–	0.56	2.17	0.96	0.052	0.96	0.052	0.56	6.85	–	B4
–	–	–	–	–	–	–	–	–	–	–	0.402	0.692	0.12	0.11	0.12	0.11	0.402	2.26	–	B5
–	–	–	~1	~1	0.793	4.14	0.555	0.417	0.889	7.89	–	–	–	–	–	–	–	–	–	B6
